In assay [1] the target is T1, recombinant hAng-2 (recombinant protein with His tag attached to human Ang-2; R&D Systems) (human, UniProt O15123 19-496).
T1 construct: also called angiopoietin-2; ANGPT2
T1 sequence (looked up): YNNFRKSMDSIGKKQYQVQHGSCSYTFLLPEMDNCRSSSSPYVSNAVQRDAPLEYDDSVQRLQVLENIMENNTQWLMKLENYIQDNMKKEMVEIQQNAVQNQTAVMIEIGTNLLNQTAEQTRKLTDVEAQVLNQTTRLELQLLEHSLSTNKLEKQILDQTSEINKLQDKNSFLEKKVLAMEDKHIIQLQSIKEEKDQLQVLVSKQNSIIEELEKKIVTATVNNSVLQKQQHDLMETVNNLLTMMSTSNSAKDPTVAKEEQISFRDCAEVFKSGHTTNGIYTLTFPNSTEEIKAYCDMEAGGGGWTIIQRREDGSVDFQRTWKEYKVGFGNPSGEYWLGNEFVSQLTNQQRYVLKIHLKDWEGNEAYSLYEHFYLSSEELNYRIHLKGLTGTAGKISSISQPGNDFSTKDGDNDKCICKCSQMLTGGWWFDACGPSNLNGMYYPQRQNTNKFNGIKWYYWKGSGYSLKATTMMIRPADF
In words: SPR, BIAcore T100; hAng-2 amine-coupled on CM5, antibody 100 to 0.78125 nM. As for the experimental part: (§1) The SPR method using BIAcore T100 (GE Healthcare) is used to accurately measure the affinity to the Ang-2 antigens. 20 μg/ml recombinant hAng-2 (R&D Systems) is fixed on a sensor chip CM5 (GE Healthcare) using pH4.5 acetate solution and amine coupling kit (GE Healthcare). The antibodies obtained in Section 2 above are diluted to eight different concentrations down to 0.78125 nM by diluting to ½ each time starting from 100 nM. Then the antigen/antibody affinity is measured by causing the antigens to repeatedly bind and disassociate with the antibodies fixed on the sensor chip (using pH2.2 glycine-HCl solution).

Assay [2] has as its target T1, recombinant hAng-2 (recombinant protein …). In words: competitive ELISA; antibody titrated with 1 nM hAng-2 (His) on coated hTie2-Fc. As for the experimental part: A competitive ELISA is performed to assess the molecular interaction of the binders. A 96-well MaxiSorp™ flat-bottom plate (Nunc) is coated with hTie2-Fc (R&D Systems), which is a fused protein including the water-soluble extracellular portion of human Tie-2 and Fc of human IgG₁ dissolved in DMEM culture solution containing 50 μg/ml bovine serum albumin (BSA). The concentration of hTie2-Fc used as a coating material is equivalent to 75% of its maximum binding concentration with 1 nM of recombinant hAng-2 (recombinant protein with His tag attached to human Ang-2; R&D Systems). Then the plate is washed five times with Phosphate Buffer Saline (PBS) containing 0.1% Tween-20 and blocked at room temperature for two hours with PBS containing 5% BSA. Each anti-Ang-2 antibodies are diluted from 100 nM by one-fourth each time with PBS containing 1% BSA and 1 nM hAng-2 and adjusted to 6.1 pM for Ang-2:Tie-2 neutralization ELISA. 100 μl of antibody/hAng-2 solutions are placed in each corresponding well and left to react at room temperature for two hours. Then the wells are washed five times with PBS containing 0.1% Tween-20, and the anti-His antibodies (GE Healthcare) are diluted to about 1:3,000 with PBS containing 1% BSA and left to react at room temperature for one hour. Afterwards, 100 μl of goat anti-mouse-IgG-HRP (Pierce) diluted with PBS containing 1% BSA to about 1:10,000 is added to each well of the plate, left to react at room temperature for one hour, and washed with PBS containing 0.1% Tween-20 five times. Lastly, 100 μl of TMB substrate (SIGMA) is added to each well of the plate to induce color reaction, and the reaction is stopped by adding 50 μl of 5N H₂SO₄ solution. The OD₄₅₀ value is read on a plate reader (Molecular Devices).

Assay [3] concerns the target T2, recombinant hAng-2 (Homo sapiens, UniProt O15123).
T2 construct: His tag; purchased R&D Systems
T2 sequence (O15123 19-496): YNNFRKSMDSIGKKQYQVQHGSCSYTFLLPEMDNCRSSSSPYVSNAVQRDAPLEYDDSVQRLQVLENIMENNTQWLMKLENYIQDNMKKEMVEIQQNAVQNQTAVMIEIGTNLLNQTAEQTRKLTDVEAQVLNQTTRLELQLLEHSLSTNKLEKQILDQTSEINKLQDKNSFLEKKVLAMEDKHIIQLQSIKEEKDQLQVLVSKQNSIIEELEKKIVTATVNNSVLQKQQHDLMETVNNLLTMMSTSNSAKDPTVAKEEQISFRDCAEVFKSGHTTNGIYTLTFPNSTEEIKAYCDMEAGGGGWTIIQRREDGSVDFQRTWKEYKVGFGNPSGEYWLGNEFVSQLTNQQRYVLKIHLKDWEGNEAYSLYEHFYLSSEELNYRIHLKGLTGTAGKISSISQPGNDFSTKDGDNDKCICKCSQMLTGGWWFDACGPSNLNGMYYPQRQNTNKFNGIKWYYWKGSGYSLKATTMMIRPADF
Briefly: Affinity to Ang-2 antigen by surface plasmon resonance (BIAcore T100). It is filed as binding. The note with it: SPR, hAng-2 on CM5 chip. As for the experimental part:
as §1

B1: SAITAng-2-4 (antibody, V domains shown)
VH: QVQLQQSGAELARPGASVKLSCKASGYTFTDYYINWAKQRTGQGLEWIGEIYPGSGDTYYNEKFKGKATLTADKSSSTAYMQLSSLTSEDSAVYFCARYGYKGVYFDYWGQSTTLTVSS
VL: ENVLTQSPAIMAASLGQKVTMTCSASSSVSSSYLHWYQQKSGASPKPLIHRTSNLASGVPARFSGSGSGTSYSLTISSVEAEDDATYYCQQWSGYPFTFGAGTKLELK
notes: Mouse monoclonal anti-Ang-2 antibody purified from hybridoma culture
For the molecule B1, in assay [1], the Kd came to 0.931 nM, the off-rate constant (koff) came to 0.000477 s⁻¹ and the kon was found to be 512000 M⁻¹ s⁻¹. Moreover, the IC50 in assay [2] amounted to 1.01 nM. In addition, in assay [3], the “Off Rate” value is 0.0004769 s⁻¹ and the “On rate” value came to 512100 M⁻¹ s⁻¹.

For the origin of these results see patent US20110076723A1, “ANTIBODY-PEPTIDE FUSED SYNERGIBODY” (SAMSUNG ELECTRONICS CO., LTD., priority 2008, published 2011).
